Measurements: paper PMC7141649

Target: actin (coated on the BLI biosensor)
Assay: BLI; Octet RED, 25°C; APS biosensor coated with actin; rWLP (1 mM) in PBS pH 7.4 with 0.05% Tween 20 and 0.1% BSA; 300 s association, 120 s dissociation

Kd: 193 nM
Substance: recombinant whirlin-like protein (as used in biolayer interferometry) (natural protein)
